The domain aggregation screens of Martell et al. (2025)

Experiment: soluble fraction after stress (log2 fold change); higher = more stays soluble; pooled small domains, quantitative proteomics
Conditions: stress: 50 degC
Procedure, shortened: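 After stress at 50°C, the amount of each protein still soluble was measured. This was done on pooled custom libraries of small protein domains, using high-throughput quantitative proteomics. The figure given is a base-two log fold change and stands for aggregation propensity, with higher values meaning more protein stays in solution.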

| Sequence | soluble fraction (log2) |
| --- | --- |
| HMQMTKSEFLDALRRALNGNMAAASVDDNIRFYDSYFYTEETKGRSEAEILSELGDPRILARTLIDAAD | 0.0125 |
| HMGRAAEETETFRTQGELDARIKELQGQMRDAAANLEFERAAGLRDTLKRLRTRGLGLSASP | 0.0346 |
| HMYMWQVEDLIRANGLDIERIKDSIIRPYELDEERKRELTQWYEDLIDMMRREGVAQSGHLQIN | -2.45 |
| HMLQESDPEALRGIVKSVLVDHAAVAEEYRAGKQSVLQFLVGQGMKASKGAGNPGLIRDLMLEEL | -0.00903 |
| HMRGHASVEIKRIVYKYKLTDQELAKITGMKASDFPIYHDHLQLILPKRYWARVLDALQNYEKEHES | -4.18 |
| HMVIPATPTARRAKIAGLLADRSVRSQGELLTLLADAGIEVTQATLSRDLEALGAVKVRDGRGLVYAVPG | -0.0411 |
| HMEKDKGTILKEARIKKGLTQEQLANNINYTRQYISKWENNISLPKDIQTLKKISNLLSIPLKELLPEDYL | -0.109 |
| HMERAYGVRVSLRLDDPFRTLLGADWSRTHWFASAEERDAALLEMSRKHEFSRPGDQPALVYEKVQN | -0.728 |
| HMKEKIIKEPYDLFTTDKIGQALEVQALLARQGIKVQRRVDGTKSTLFLENYTQSEKDQALLAVVRSGIV | 0.161 |
| HMHLNVYRDEDEAMLAFKDHLIGTHQPIRVRVEKALPDGTMGHKIVDTTIGRIVFNHNIPQD | -0.189 |
| HMAEKGIGRVNADWLNMRTSPGGEVLTVLKQGTELQVIGRSGSWLEVQHGNEQGYVSSRYITIQP | -0.17 |
| HMKAQLQHIIGSNIKLARNTQGYTQEGLAERAEISVEHLKQVERGKKMLSVESLVNVANALQVSVDSLV | 0.0587 |
| HMSEEAMVSNFRQQEILELARKDGKVTVDGLAELYDVTVQTIRRDLSDLADSGRLKRVHGGAVVPS | 0.262 |
| HMAISQYGSQSDEVTKIQTRLKAWGYFDGPVTAYYGSQTTEAVKKFQQKHGLSATGVADAKTLELIGLP | -0.36 |
| HMSIASASVKEKIRDIVSSEPPQKPFSDAKIAEILAEDGIAIARRTVAKYREEIGIPTKSLRKR | 0.0195 |
| HMPVFYATNRQKTTIHNLKRKKGLDDDAYRATIYSFTHGRTDSSKYMYKYEAAELIQKWLDPE | -1.7 |
| HMASITLDQAKEIALTHAGQTADAVWFEKAEQDYDDGILVYELEFAAKGTEYEYEIDAQTGAIREYKWDD | -0.0142 |
| HMHKLTSRQEEILQFIKDYLSEIGYPPTRSEIAQKMGFRSTNAAEEHLRALARKGAIEILPGPSRGLRLP | -0.455 |
| HMQIIGEQNQKDFIALFGAILRMRNLLLSFDEFKGNELISERDLQDYLGRYQDLRDEWRNKRRER | 0.0518 |
| HMGSAKAQLYDLMNAHQVTRNQIQDIVAEKGYFPAGTPIENYPDDFVKGVLVGAWDQVHKAILDKEI | 0.0946 |
| HMDVPVEVFMERIVTALREGRKTTFSELMEGKPERGKVIGTFLALLQLSKGQQIQIHQEQRTGEISIEGGA | -0.315 |
| HMQKPWFYESSGQRKGGFSEQEMVGLITDGEITHGAIVWRNGLSDWTKLEQTELAAHLDKTA | -0.249 |
| HMSSQADEEALFKLLAANPYSDEQLEEIRIAIGSGIAYKDIIRIADIGNTAERMKQLRLEFTKDTAN | -0.0428 |

| Sequence | soluble fraction (log2) |
| --- | --- |
| HMTPLILTAQEGGERLDAFVASQVEDLTRSAAQRLLEQGAVTSGGKPLKKNAKTTPGMVVEVLLPDPQ | 0.251 |
| HMSPDALSNLPIGSEIKFTLWDGTEKRLVKHPAAYQFSRPFWMNLNEYTYVPVNRIPKNYEVIRL | -0.0581 |
| HMKLRLGVNIDPVATVRNARGSAYPDPVRAAIIAQEAGADGITAHLREDRRHIVDQDITSIIKAIDIPLNF | -0.0391 |
| HMQISDESQLREVVSKILEENEQSVIDYKNGKTRAMGFIIGQVMKATRGKANPQLVNEIVKEMLDE | 0.097 |
| HMDLMSTNEKLLYTMRYLISKSLDGAITEEEIRRLDRLIIENSQARAYYVEYLQIHTHLRKLMQQNPELK | -1.97 |
| HMTKEAIAQKLRIARQESGLTQKDVSAKIGRPQQTIASWEVGRSQPDADTLYSLLLLYKVSPNTFFEYD | -0.352 |
| HMGQVLEGVFRRKANGKNAFIPDGGGEPILVAERNSAHAMDGDRVKATLLARRKHHVREAQVTEILKRSSK | -0.0521 |
| HMQTTEDMEINAKVDEYLREMYLWNDEYKTLNLDHNKGYEDFFYDALGSMTTNTLDKKTYVGSDGKTYYNL | -0.248 |
| HMEDDPIYEQVMIFLLDKQITSAPELERRFKITHQRAIELLAQMEKTGIVSTMGHAGKRDVLT | -0.827 |
| HMSYLELENLAEDIKATYDNLSTDLREVFRLSDIEGLSYEEISNKMNIPIGTVRSRLHRARETLLRIFNN | -0.933 |
| HMGSNTLEDAYKVLGITPDATDDEVRKAYKKMVIQHHPDKVANLGEDVKKAATIKLQEINNAKEIIFKARN | 0.139 |
| HMSLGSSLFHARKKSGLTQEAVAEKLGVSRQTISKWETNETLPDIRQSKGLAMLYHMTLDELIE | -0.223 |
| HMNGAITLRVRPSDEGKRLDVFVVSQLTGYTRSFVAGLIGDRHFLVNGQPKKPGYRIKSSDTISGVIPAPA | -1.21 |
| HMSMRILNHTVVKILKRYRIATDEQLQPLLDEAERSGRSLQDVVLDAKLVSETELTKLFADYAD | -0.0864 |
| HMKPDAAKREQLIDIALRLFSQQGIARTSLNAIAREAGVTPAMLHYYFNSREQLLDVMIEERFL | -3.09 |
| HMLLTDGLERRIDGDKNLHIRISLPMLVKGQIKLAKSGNNESTVKGIFKIESYPGSHPRDVVTEIIEG | -0.0938 |
| HMHITSFTIKQADQIVGTTPVREQAVGAAKARAQQTGTPVSVIAYLDTGEEREVIIHPDGTN | 0.324 |
| HMLDLPVKTINGKQYYYYTVKKGDTVYSLITRFGITRSDLVESNPAAADVLKTGDTLYFAVDKFG | -0.0825 |
| HMSDKTSLTDDDKALINSMLPDYDKYPSVAKLQAVEIAKSSSKMATLLMLDERYNETVSEALE | 0.0209 |
| HMETALYVEDLDRAVRFYESVMGLNTMSRGVRLVALDAGEGTVLLLFLRGATTSGASFEGGWIPPH | -0.0244 |
| HMISDAEWKIMNVLWEEQPRTMMQITKELQEETGWTKHTVMTYLKRMESKKIIHYVEGEKAKLYYS | -0.0967 |
| HMAAPVGLTQRQMEVAALVADGLTNAEIGRRLHITERSAESHLERVRIRLGFRSRAQVAAWFVTQE | -3.5 |
| HMLPTLSLSVKIYKGEGDIALDLEEMVKAFDQLNFGSYPFSEKGVHGTNIVIRGNDKKHMEEAEDKVRSLT | -0.725 |

| Sequence | soluble fraction (log2) |
| --- | --- |
| HMFERINLIGVNGTTKKRSALVRLLDGEIVKIGVGDSLNGGQVVDISPATLTYLKSGKSIMLTLPK | -1.03 |
| HMGVENDGYVLPRELKKGDTVLIADLGKEATVLSPVDRNGNVEVLAGAAKTRVKLKNLRLIE | 0.13 |
| HMTLDVALSKEIKYMLKEEHYLPGDKLPSERKLAELFHVQRLTVRGALNLLLQDKTIISKPRSGYYVAPKR | -3.1 |
| HMDNFDVVLTSPGDQKVQVIKAVRSITGLGLKEAKDLVDGAPNTVKEGVKKLDAEEMLKQLTEAGATGEL | 0.296 |
| HMQINDSSVVQKAVNDVIDQNSKAVSDYWDGKEGAAKFLMGQVMKLTRGQANPDLANQLILTRLQQERV | 0.264 |
| HMLEDYFKEEEYTEVLKIPKEYIKGFQYYLIEDAEFVNALRAKNKTMTLFLAKKLASDYIEIIRREQ | -0.208 |
| HMSDVLPEAILERRLVKKGNRAVPQVLIKWTKLPATSATWEDFYVLQQRFPTALAWGQAPSPGGQM | -0.221 |
| HMHSDSEIEKGYTDDGQKLSNVNGVYMTKSEMYNKGIVEKDPNTGEEVMGRNRVNPVTGELE | 0.164 |
| HMSEIYVDDINRKILYLLSQGIKTKSLLEHIPLSMSGIEKRKKQLKMLFSVEDGKDETLLEMAKEKGF | -1.45 |
| HMSAEAYLSFVKKENLRAAVVNYENNKEWLKDVPHERLLDLAVFAKVDMGEPGMSMKFNNWLLSR | -0.78 |
| HMDDATTQLADRLLDLRRKAGYSQEQLADLLGVSRQAISKWEGAQGRPEVDNVVKLAQIYRVSTDFILTGS | -0.552 |
| HMDAKIKDYADAYAKMDPQQAASLFNNMTTGSLDLVAKILENIPANKRAAILEKMDVNAAAQVTEKMR | 0.117 |
| HMEDISQHAVKKLVQEMVMAEDPRDPLSDQQIAENLSRLGLKVARRTVAKYRAMLGIQPSNRRRK | -0.0553 |
| HMPRFDINFKVGEVVTIKGGSFDGQQGEISEIDHEHGKIKVMLEVLGRLTPVEVEHTEIEKI | 0.176 |
| HMQISLAAARVNAGLTQEEVAKAMKVGKQTIVSWEKGNSEPKMSQSRELSELYKIPLDYIFYP | -0.322 |
| HMTEFWTGPITTVTKANFADWTLDTNQDRITANVWLTRADSKGLFNITPGKETAFDIVDYLSPLDTEWA | -0.188 |
| HMGMSKQKQSSLVRIIMQEISDANEGRMKMSQIIDAALIKGISDSTVRSVISRLSTTGAIYEPQTGTYEW | -0.643 |
| HMTPDDSYIAGYAAGILKHQFLIDAPELIVRNGTITIPADKVSAGDRAKVVQILSGIPGVTRVEVG | -0.0502 |
| HMGQPRPLTAEDFDFLSDDEIAEMRKALSNGEMLRLRELIAQIGEKRPFLAERLLVLAKQYNYEDLSRLLE | -0.374 |
| HMYKLTTQRRAILDVIIENHDKHLNPEEIYDIVKEKYPEIGIATVYRTLQLLEKLNIIYRLNFDDGYNRYE | -2.3 |
| HMDSSLVWVDYLLGSKLTKLNSSNELTGPGASAKTIGAFLGENKQSFDLYIESVHNARDTYSDILTHGT | -0.0043 |
| HMDLDPVEKLHLLSQLYVGQLKGSFVVKEKNQKTTIIGEVRELSHQTLSIRTNEGYRLIEVADILEIRLWE | -0.221 |
| HMDLLIFSPSLGQHVRDLKRVIDRLHQHGIPVRWQKAKLLREEIEYIGWTWKSGGLIDPTNV | -0.31 |
